Source: IntAct's records for PubMed 20802513

B1: Focal adhesion kinase 1 (Gallus gallus (Chicken)), Q00944 (parent)
chain: MAAAYLDPNLNHTPSSSAKTHLGTGMERSPGAMERVLKVFHYFENSSEPTTWASIIRHGDATDVRGIIQKIVDCHKVKNVACYGLRLSHLQSEEVHWLHLDMGVSNVREKFELAHPPEEWKYELRIRYLPKGFLNQFTEDKPTLNFFYQQVKNDYMLEIADQVDQEIALKLGCLEIRRSYGEMRGNALEKKSNYEVLEKDVGLRRFFPKSLLDSVKAKTLRKLIQQTFRQFANLNREESILKFFEILSPVYRFDKECFKCALGSSWIISVELAIGPEEGISYLTDKGANPTHLADFNQVQTIQYSNSEDKDRKGMLQLKIAGAPEPLTVTAPSLTIAENMADLIDGYCRLVNGATQSFIIRPQKEGERALPSIPKLANNEKQGVRSHTVSVSETDDYAEIIDEEDTYTMPSTRDYEIQRERIELGRCIGEGQFGDVHQGIYMSPENPAMAVAIKTCKNCTSDSVREKFLQEALTMRQFDHPHIVKLIGVITENPVWIIMELCTLGELRSFLQVRKFSLDLASLILYAYQLSTALAYLESKRFVHRDIAARNVLVSATDCVKLGDFGLSRYMEDSTYYKASKGKLPIKWMAPESINFRRFTSASDVWMFGVCMWEILMHGVKPFQGVKNNDVIGRIENGERLPMPPNCPPTLYSLMTKCWAYDPSRRPRFTELKAQLSTILEEEKLQQEERMRMESRRQVTVSWDSGGSDEAPPKPSRPGYPSPRSSEGFYPSPQHMVQPNHYQVSGYSGSHGIPAMAGSIYPGQASLLDQTDSWNHRPQEVSAWQPNMEDSGTLDVRGMGQVLPTHLMEERLIRQQQEMEEDQRWLEKEERFLVMKPDVRLSRGSIEREDGGLQGPAGNQHIYQPVGKPDHAAPPKKPPRPGAPHLGSLASLNSPVDSYNEGVKIKPQEISPPPTANLDRSNDKVYENVTGLVKAVIEMSSKIQPAPPEEYVPMVKEVGLALRTLLATVDESLPVLPASTHREIEMAQKLLNSDLAELINKMKLAQQYVMTSLQQEYKKQMLTAAHALAVDAKNLLDVIDQARLKMISQSRPH

Variants of: B1
Conditions: with pgfrb_human PDGFRB

Row | Variant | effect of a mutation on the interaction
1 | Y5F;Y194F | disrupting interaction
